Reference: patent publication US20240309103A1 (Regeneron, published 2024)

T1: human NPR1 on HEK293/hNPR1.myc.DDK cells (0 hANP) (human, UniProt P16066 33-1061)
T1 sequence: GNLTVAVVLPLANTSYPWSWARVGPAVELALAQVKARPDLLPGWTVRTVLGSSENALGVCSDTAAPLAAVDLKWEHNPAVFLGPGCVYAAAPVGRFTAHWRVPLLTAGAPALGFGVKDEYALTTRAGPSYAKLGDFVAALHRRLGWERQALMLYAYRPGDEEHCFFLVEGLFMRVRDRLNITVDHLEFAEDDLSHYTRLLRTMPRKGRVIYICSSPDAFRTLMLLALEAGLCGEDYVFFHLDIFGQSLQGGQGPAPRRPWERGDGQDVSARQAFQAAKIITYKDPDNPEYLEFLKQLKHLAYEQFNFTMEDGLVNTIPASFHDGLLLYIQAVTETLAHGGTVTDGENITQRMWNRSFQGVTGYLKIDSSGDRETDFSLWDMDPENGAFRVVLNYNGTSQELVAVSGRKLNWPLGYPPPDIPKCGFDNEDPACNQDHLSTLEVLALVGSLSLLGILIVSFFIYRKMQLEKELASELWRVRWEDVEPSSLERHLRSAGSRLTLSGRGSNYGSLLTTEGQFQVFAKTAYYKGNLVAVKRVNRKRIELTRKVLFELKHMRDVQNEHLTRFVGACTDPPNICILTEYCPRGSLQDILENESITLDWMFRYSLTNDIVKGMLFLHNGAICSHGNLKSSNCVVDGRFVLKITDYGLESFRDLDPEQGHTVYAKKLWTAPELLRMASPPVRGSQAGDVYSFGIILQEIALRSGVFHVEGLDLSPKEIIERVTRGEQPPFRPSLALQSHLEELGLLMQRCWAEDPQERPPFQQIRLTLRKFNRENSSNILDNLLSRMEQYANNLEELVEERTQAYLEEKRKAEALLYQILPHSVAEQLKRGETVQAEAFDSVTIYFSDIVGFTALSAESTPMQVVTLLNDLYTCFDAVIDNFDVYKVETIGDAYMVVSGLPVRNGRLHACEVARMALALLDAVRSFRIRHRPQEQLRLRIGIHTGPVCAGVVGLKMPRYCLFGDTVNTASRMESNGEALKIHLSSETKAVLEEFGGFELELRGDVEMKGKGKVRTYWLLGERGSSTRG

T2: mNPR1-mFc (mouse)
T2 construct: also called mouse NPR1 extracellular domain expressed with a C-terminal mouse IgG2a
T2 chain: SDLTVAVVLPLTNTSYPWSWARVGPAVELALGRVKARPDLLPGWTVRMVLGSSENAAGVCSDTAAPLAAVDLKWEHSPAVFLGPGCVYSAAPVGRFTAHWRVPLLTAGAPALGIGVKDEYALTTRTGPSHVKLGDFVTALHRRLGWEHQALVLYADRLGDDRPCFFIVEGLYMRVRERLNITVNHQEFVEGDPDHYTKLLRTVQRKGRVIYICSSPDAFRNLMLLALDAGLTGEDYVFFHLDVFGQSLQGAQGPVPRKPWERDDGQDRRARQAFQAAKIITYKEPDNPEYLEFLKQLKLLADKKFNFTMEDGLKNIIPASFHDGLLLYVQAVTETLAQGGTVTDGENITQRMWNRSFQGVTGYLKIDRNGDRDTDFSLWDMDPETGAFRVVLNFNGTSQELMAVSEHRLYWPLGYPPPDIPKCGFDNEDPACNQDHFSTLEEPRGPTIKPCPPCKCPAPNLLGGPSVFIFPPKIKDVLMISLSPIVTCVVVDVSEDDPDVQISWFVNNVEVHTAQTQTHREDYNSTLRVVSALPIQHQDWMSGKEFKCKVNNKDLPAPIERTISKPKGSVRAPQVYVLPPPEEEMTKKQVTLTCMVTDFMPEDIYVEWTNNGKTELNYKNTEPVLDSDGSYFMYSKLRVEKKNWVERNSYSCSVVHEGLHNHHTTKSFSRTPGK

T3: human NPR1 on HEK293/hNPR1.myc.DDK cells with 10 nM hANP (NPR1-ANP complex) (human, UniProt P01160 124-151)
T3 construct: also called NPR1-ANP Complex on the Cell Surface
T3 sequence: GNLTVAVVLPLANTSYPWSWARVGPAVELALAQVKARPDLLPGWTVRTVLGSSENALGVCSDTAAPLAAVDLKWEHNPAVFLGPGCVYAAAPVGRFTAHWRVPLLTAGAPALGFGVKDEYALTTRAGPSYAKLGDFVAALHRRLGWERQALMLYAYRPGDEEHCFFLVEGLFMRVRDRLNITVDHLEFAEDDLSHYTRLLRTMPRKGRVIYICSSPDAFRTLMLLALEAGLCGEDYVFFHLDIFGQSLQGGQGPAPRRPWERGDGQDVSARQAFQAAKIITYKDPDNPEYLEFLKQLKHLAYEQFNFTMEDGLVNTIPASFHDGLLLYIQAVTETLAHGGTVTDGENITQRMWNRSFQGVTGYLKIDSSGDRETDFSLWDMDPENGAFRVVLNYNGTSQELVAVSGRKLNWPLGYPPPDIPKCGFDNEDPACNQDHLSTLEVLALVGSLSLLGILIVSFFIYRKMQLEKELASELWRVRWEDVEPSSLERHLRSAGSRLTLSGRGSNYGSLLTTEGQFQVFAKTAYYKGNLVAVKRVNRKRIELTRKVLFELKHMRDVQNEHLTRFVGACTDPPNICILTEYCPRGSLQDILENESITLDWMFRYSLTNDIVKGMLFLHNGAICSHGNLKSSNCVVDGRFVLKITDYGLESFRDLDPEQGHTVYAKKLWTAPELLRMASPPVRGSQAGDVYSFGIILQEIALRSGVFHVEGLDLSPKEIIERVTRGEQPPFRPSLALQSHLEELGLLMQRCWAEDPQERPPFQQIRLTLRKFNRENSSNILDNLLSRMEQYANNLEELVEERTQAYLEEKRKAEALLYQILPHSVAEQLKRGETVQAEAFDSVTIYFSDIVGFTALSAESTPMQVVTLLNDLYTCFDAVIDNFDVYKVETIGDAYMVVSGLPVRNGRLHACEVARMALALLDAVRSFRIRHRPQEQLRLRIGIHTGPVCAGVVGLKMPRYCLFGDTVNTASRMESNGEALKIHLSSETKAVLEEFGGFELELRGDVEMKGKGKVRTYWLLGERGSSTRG
T3 sequence (peptide): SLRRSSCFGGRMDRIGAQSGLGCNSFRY


How the values were obtained:
[1] = molecular target: T1, human NPR1 on HEK293/hNPR1.myc.DDK …; assay: cell-based or functional assay
[2] = molecular target: T1, human NPR1 on HEK293/hNPR1.myc.DDK …; assay: ECL cell binding (MSD), 0 hANP
[3] = molecular target: T2, mNPR1-mFc; assay: SPR Biacore, mAb captured by anti-human Fc, 25C
Outline: (§1)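 Capture surface: anti-human Fc mAb or anti-human Fcγ pAb amine-coupled to CM5; mAbs captured, NPR1 reagent as analyte.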

[4] = molecular target: T1, human NPR1 on HEK293/hNPR1.myc.DDK …; assay: ECL cell binding (MSD), HEK293/hNPR1.myc.DDK cells, 0 hANP
Experimental: Experiments were carried out according to the following procedure. Cells from lines described above were rinsed once in 1×PBS buffer without Ca²⁺/Mg²⁺ nd incubated for 10 minutes at 37° C. with Enzyme Free Cell Dissociation Solution to detach cells from a flask. All cells were washed once with 1×PBS with Ca²⁺/Mg²⁺ and counted with a Cellometer™ Auto T4 cell counter (Nexcelom Bioscience). Approximately 2.0×10⁴ HEK293/hNPR1.myc.DDK or HEK293 cells were seeded separately onto 96-well carbon electrode plates (MULTI-ARRAY high bind plate, Meso Scale Discovery (MSD, Rockville, MD)) and incubated for 1 hour (h) at 37° C. Nonspecific binding sites were blocked by 2% BSA (w/v) in 1×PBS with Ca²⁺/Mg²⁺for 1 h at room temperature (RT). HEK293/hNPR1.myc. […] The plate-bound antibodies were detected with SULFO-TAG™-conjugated goat polyclonal anti-human IgG antibody specific for heavy and light chains (Jackson Immunoresearch, West Grove, PA) for 1 h, RT.
After washes, plates were developed with Read Buffer (MSD, Rockville, MD) according to manufacturer's recommended procedure and luminescent signals were recorded with a SECTOR Imager 600 (MSD, Rockville, MD). Luminescence intensity, measured in relative light units (RLU), was recorded to indicate the binding intensity of each antibody at the range of concentrations.

[5] = molecular target: T3, human NPR1 on HEK293/hNPR1.myc.DDK …; assay: ECL cell binding (MSD), +10 nM hANP
[6] = molecular target: T2, mNPR1-mFc; assay: SPR Biacore, mAb captured by anti-human Fc, 37C
Outline: as §1

[7] = molecular target: T4, mfNPR1-mFc:hBNP complex (monkey; human, UniProt P16860 103-134); assay: SPR Biacore, mAb captured by anti-human Fc, 37C
T4 construct: Receptor-Fc pre-complexed with 10-fold hBNP
Outline: as §1

[8] = molecular target: the molecule itself; assay: SEC-MALS
Experimental: After overnight incubation in PBS at 4° C., the complexes were injected into the SEC-MALS system, which consists of a Superdex 200 Increase 10/300 GI column on an ÄKTA micro system (GE Healthcare Life Sciences), followed by a miniDAWN Treos and Optilab T-rEX (Wyatt Technology Corporation). […] Size exclusion chromatography data was evaluated using Unicorn (Version 5.20 General Electric Company), and the MALS data was evaluated using ASTRA (Version 7.0.0.69 Wyatt Technology).

Row | Binder | % Activation (vs ANP max), Expt 1 [1] | % Activation (vs. ANP max), Expt II [1] | EC50 (nM), calcium flux, Expt 1 [1] | EC50 (nM), calcium flux, Expt II [1] | Ratio at 3.7 nM Ab concentration of Cell Binding Signal (RLU) to HEK293/hNPR1.myc.DKK relative to parental HEK293 [2] | 100 nM Ag Bound (RU) [3] | binding result [4] | EC50 [5] | Ratio at 3.7 nM Ab concentration of Cell Binding Signal (RLU) to HEK293/hNPR1.myc.DKK relative to parental HEK293 [5] | 100 nM Ag Bound (RU) [6] | binding result [6] | 100 nM Ag Bound (RU) [7] | Kd [7] | koff [7] | kon [7] | t½ [7] | binding result [8]
1 | mAb25545 (antibody, human IgG4, V domains shown) VH: QVQLVESGGGLVKPGGSLRLSCAASGFTFSDYHLSWIRQAPGKGLEWVSYIRSSGRTIDYAASVKGRFTISRDNAKNSLYLQMNSLRVEDTAVYYCARENWIVLKVYAGIVGAPLDQWGQGTLVTVSS VL: not shown | 123% | 123% | 188 nM | 74.1 nM | 1 ratio | 0 RU | no binding (tested: ratio below 3 at 3.7 nM Ab) | 1.9 nM | 79 ratio | 1 RU | no binding (tested: 100 nM) | 82 RU | 2.09 nM | 7.77e-05 s⁻¹ | 37100 M⁻¹ s⁻¹ | 149 min | –
2 | mAb22809 (antibody, human IgG4, V domains shown) VH: QLQLRESGPGLVKPSETLSLTCTVSGGSINDNSFFWDWIRQTPGRGLEWIGNIFFDGNTYYTPSLKSRVIISVDMSQNQFSLRLTSVTAADTALYYCARHKRSMTAWGFFDYWGQGTLVTVSS VL: DIQMTQSPSSLSASVGDRVTITCRASKRINTYLNWYQQKPGKAPKVLIYSASNLQSGVPSRFSGSGSGTDFTLTINSLQPEDFATYFCQQSFSAPPITFGQGTRLEIK | 86.7% | – | 270 nM | – | 2 ratio | 0 RU | no binding (tested: ratio below 3 at 3.7 nM Ab) | 0.48 nM | 166 ratio | 0 RU | no binding (tested: 100 nM) | 99 RU | 4.29 nM | 0.000229 s⁻¹ | 53400 M⁻¹ s⁻¹ | 50.5 min | –
3 | mAb22805 (antibody, human IgG4, V domains shown) VH: QVQLVESGGGVVQPGRSLRLSCAASGFTFSTYGMHWVRQAPGKGLEWVALIWNDGSNKYYADSVKGRFTISRDNSKNTLDLQMNSLRAEDTAVYYCARLNTRITGTTNLDYWGQGTLVTVSS VL: DIQMTQSPSSLSASVGDRVTVSCRASQSIANYLNWYQQKPGKAPNLLIYGAYTLQSGVPSRFRGSGSGTDFTLTISSLQPEDFATYYCQQTYSTPPITFGQGTRLEIK | 91.6% | 119% | 239 nM | 112 nM | 1 ratio | 0 RU | no binding (tested: ratio below 3 at 3.7 nM Ab) | 0.65 nM | 222 ratio | 0 RU | no binding (tested: 100 nM) | 150 RU | 3.39 nM | 0.000202 s⁻¹ | 59600 M⁻¹ s⁻¹ | 57.2 min | –
4 | human NPR1 extracellular domain expressed with a C-terminal myc-myc-hexahistidine (hNPR1-MMH) (receptor, also called hNPR.mmh; monomeric human NPR1) GNLTVAVVLPLANTSYPWSWARVGPAVELALAQVKARPDLLPGWTVRTVLGSSENALGVCSDTAAPLAAVDLKWEHNPAVFLGPGCVYAAAPVGRFTAHWRVPLLTAGAPALGFGVKDEYALTTRAGPSYAKLGDFVAALHRRLGWERQALMLYAYRPGDEEHCFFLVEGLFMRVRDRLNITVDHLEFAEDDLSHYTRLLRTMPRKGRVIYICSSPDAFRTLMLLALEAGLCGEDYVFFHLDIFGQSLQGGQGPAPRRPWERGDGQDVSARQAFQAAKIITYKDPDNPEYLEFLKQLKHLAYEQFNFTMEDGLVNTIPASFHDGLLLYIQAVTETLAHGGTVTDGENITQRMWNRSFQGVTGYLKIDSSGDRETDFSLWDMDPENGAFRVVLNYNGTSQELVAVSGRKLNWPLGYPPPDIPKCGFDNEDPACNQDHLSTLEEQKLISEEDLGGEQKLISEEDLHHHHHH | – | – | – | – | – | – | – | – | – | – | – | – | – | – | – | – | binds
5 | mAb22810 (antibody, human IgG4, V domains shown) VH: EVQLVESGGGLVKPGGSLRLSCVVSGFTFRIYTMNWVRQAPGKGLEWVASISSSSSFINYADSLKGRFTISRDNAQNSLYLQMNSLRAEDTAIYYCARAAGNDVLPGRMDVWGQGTSVTVSS VL: EIVLTQSPGTLSLSPGERATLSCRASQSVSSNYLAWYQQKPGQVPSLLIYGASSRATGIPDRFSGSGSGTDFTLTITRLEPEDFAVYYCQQYGISPWTFGQGTKVEIK | – | 126% | – | 50.8 nM | 1 ratio | – | no binding (tested: ratio below 3 at 3.7 nM Ab) | 3.7 nM | 24 ratio | – | – | – | – | – | – | – | –
